± gives the standard deviation of the averaged measurements.
Columns and labels:
[1] = PET hydrolysis, aromatic products released after 48 h (umol product/mg enzyme); higher = more PET depolymerization activity
Outline: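 Amorphous PET film or crystalline PET powder (3.5 mg) in 450 μL of 50 mM NaCitrate (pH 4.5, 5.5), 50 mM NaPhosphate (pH 6.5, 7.5) or glycine (pH 8.5) received 5 μg (50 μL) of candidate enzyme. That enzyme was purified on nickel beads and freed of its tag by SUMO cleavage. After 48 h at 40 or 60 °C in sealed plates without shaking, absorbance of the supernatant at 260 and 280 nm was read against buffer blanks. PET hydrolysis activity is this aromatic product expressed per mg enzyme.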

[2] = melting temperature (DSF); higher = more thermostable
Outline: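 On a Bio-Rad CFX96, fluorescence of 45 μL enzyme (0 to 0.3 mg/mL) mixed with 5 μL 5X Sypro Orange in sealed PCR plates was followed from 25 °C through 250 cycles of 0.3 °C, with a 0.3 °C/s ramp. The enzymes had been expressed in E. coli C41(DE3), taken up on nickel beads and released by SUMO protease. Melting temperature, measured by differential scanning fluorimetry, is the value given.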

[3] = purified protein yield per well (BCA); higher = higher soluble expression
Outline: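 Candidate enzymes were produced in E. coli C41(DE3) grown in 2 mL autoinduction cultures containing 100 µg/mL kanamycin, first at 37 °C for 2 h and then at 18 °C for 40 h. After cell lysis, protein was captured on Ni-charged magnetic beads and freed by SUMO protease cleavage on an OT-2 robot. Purified protein yield per well was read with the Pierce Rapid Gold BCA kit. Values under 25 ug (0.1 mg/mL) fall below the detection threshold.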

[4] = substrate: aFilm, 40 °C, pH 4.5
[5] = substrate: aFilm, 40 °C, pH 5.5
[6] = substrate: aFilm, 40 °C, pH 6.5
[7] = substrate: aFilm, 40 °C, pH 7.5
[8] = substrate: aFilm, 60 °C, pH 4.5
[9] = substrate: aFilm, 60 °C, pH 5.5
[10] = substrate: aFilm, 60 °C, pH 6.5
[11] = substrate: aFilm, 60 °C, pH 7.5
[12] = substrate: cryPow, 40 °C, pH 4.5
[13] = substrate: cryPow, 40 °C, pH 5.5
[14] = substrate: cryPow, 40 °C, pH 6.5
[15] = substrate: cryPow, 40 °C, pH 7.5
[16] = substrate: cryPow, 60 °C, pH 4.5
[17] = substrate: cryPow, 60 °C, pH 5.5
[18] = substrate: cryPow, 60 °C, pH 6.5
[19] = substrate: cryPow, 60 °C, pH 7.5
[20] = substrate: cryPow, 40 °C, pH 8.5
[21] = substrate: cryPow, 60 °C, pH 8.5

Sequence | PET hydrolysis [1, 4] | PET hydrolysis [1, 5] | PET hydrolysis [1, 6] | PET hydrolysis [1, 7] | PET hydrolysis [1, 8] | PET hydrolysis [1, 9] | PET hydrolysis [1, 10] | PET hydrolysis [1, 11] | PET hydrolysis [1, 12] | PET hydrolysis [1, 13] | PET hydrolysis [1, 14] | PET hydrolysis [1, 15] | PET hydrolysis [1, 16] | PET hydrolysis [1, 17] | PET hydrolysis [1, 18] | PET hydrolysis [1, 19] | melting temperature [2] [C] | purified protein yield per well [3] [µg] | PET hydrolysis [1, 20] | PET hydrolysis [1, 21] | PET hydrolysis ([1]; substrate: aFilm, 40 °C, pH 8.5) | PET hydrolysis ([1]; substrate: aFilm, 60 °C, pH 8.5)
ADNPYQRGPDPTRTSVAAVNGPFANTSVSVPTGYGFNGGRIYYPTDTSQGTFGAIAISPGYTALFSAELAWMGPWLASHGFVVIGIETNSRNDFDTARGTQLLAALDYLTQQSPVRDRVDPNRLAVSGHSMGGGGALSAAIRRSSLKAVVGIAPYSPSSNLANDRVPTMVFSGQADTVVTPSYATGLYNSLPATTESVYLEVAGADHGFMVGRSNPVMIRTMLPFVKMFIDNDTRYSQFLCPLLDSSGVVTYRSTCPLLPPAPTPSNTGTTPPTTPPVTPTTPPSSASEIVGVQSGRCIDVPNASRNNGTRVQLYDCNRQANQSWTYTSGKQLQVYGNMCLDAAGSGNGAAVQIYSCHSQTNQQWNVNSNGTISGVQSGRCLDVWSTANGAQIQLYDCHGGANQRFNLVPRT [ESM058] | < 3 | < 3 | < 3 | < 3 | < 3 | < 3 | < 3 | < 3 | 5.5 ± 0.71 | 12.5 ± 0.71 | 11 | 4.5 ± 0.71 | < 3 | < 3 | < 3 | < 3 | 59.5 | 281 | – | – | – | –
QAPDRTALARTGPYQVAYYTQLPPAAEFSAATLFFPANKAQAFGGVVIAPGYTEKQVNVQWWGYHLASHGYAVLVLDTNDPEEYPDRRADALMAGVAVLRGENTRMGSTLRGKILEGRIALMGHSMGGGGTLLAANGHSDQLKTIIPFTPWLPGADFSAVSVPTLVLAGEIDRIAAVKDHAWPHYESLTGAVPRMYLEVKGGNHYIANSMTDREDRNPNIDVHDLVGSMVVAWLKTFLDDDESYRELVFGDLPEADRVRISRLEFVE [TEP006] | < 3 | < 3 | < 3 | < 3 | < 3 | < 3 | < 3 | < 3 | < 3 | < 3 | < 3 | < 3 | < 3 | < 3 | < 3 | < 3 | 53.5 | 215 | – | – | – | –
DDGYQRGPDPTEESIEAPRGTFEIGMAVVTRASADGFGGGTVYYPTDTSEGTFGAVAVSPGYSSSQAAIAWLGPRLASQGFVVFTIDTLSTSDSPTRRGDQVLAALSFLGRTELADRIDPDRLAVMGHSMGGGGSLEAAKDYPALQAIVPMTPWSVDKTFPEVTAPTLVIGAEDDVVARPRSHAEPIYESLPADGDKAYLELRDASHSAPSAPNTLIARYSLSWLKRYVDDDERYQQFLCPPPAVDDEISEYRSTCA [DP089] | – | – | – | – | – | – | – | – | – | < 3 | 4 | 19 | – | – | – | – | 52 | < 25 | 20 | – | – | –
ADNPYQRGPDPTRTSVTAENGPFANTSVSVPTGYGFNGGRIYYPTDTSQGTFGAIAISPGYTALFSAELAWMGPWLASHGFVVIGIETNSRNDFDTARGTQLLAALDYLTQQSPIRDRVDPNRLAVAGHSMGGGGALSAASRRSSLRAVVGIAPYSPSSNLANDRVPTMIFSGQADTVVTPSYATGLYNSLPATTKSVYLEVAGADHGFMVGRSNPVMIRTMLPFVKMFIDNDARYSQFLCPLLDSSGVVTYRSTCPLLPSTPTTPTPTPTDPPTVPPGSANEIVGTQSGRCVDVPNASRNNGTRVQLYDCNKQTNQAWTYTATKQLQVYGNMCLDAAGSGNGAAVQIYSCHSQTNQQWNVNSNGTISSVQSGRCLDAWSTTNGAQIQLYDCHGQTNQQFRLVSLAR [ESM161] | – | – | – | – | – | – | – | – | 10 | 13 | 21 | 6 | < 3 | < 3 | < 3 | < 3 | 63.1 | 137 | – | – | – | –
QSSNPYQRGPAPTERSIEASRGPFAVAQTTVSRLSATGFGGGTIYYPTDTSQGRFGGVAISPGFTALQSSIAWLGPRIASQGFIVFTIDTITTLDQPAQRGDQLLAALDYLVQRSPAAVRDRLDPTRLAVMGHSMGGGGTLEAAKKRPSLKAAIPLTGWNLDTIWNDLRVPTLVVGAQLDLIAPILTFSLPFYNTIPASTEKVYLELAGASHFAPNLPDTNIAKYSIAWLKRWVDNDTRYTQFLCPGPRFELAISNYMSSCPM [DP056] | – | – | – | – | – | – | – | – | – | < 3 | < 3 | 4 | – | – | – | – | 56.2 | 36 | 6 | – | – | –
GTTASATTVSGTQAAAAQEYRRGPDPTAQSVEAATGPFAIQQTSVPAGNGFGGGTIYYPTDTSQGTFGAIAISPGWTEDQSAIAWLGPKLASNGFVVMTINNNNAFLDFPDARGTQLLAALDSLTGQSPVAGRIDKNRLAVAGHSMGGGGALRAAATRPEIQAAIPLTPWHLNQDWSSVRVPTLIVGGETDIIASVGAHSEPFYESLTNAPERAYLEMEGQGHFVTNSANPTVGRYVLSWLKRYVDNDTRYEQFLCPAPAPSSVISEYRDSCPGS [DP018] | – | – | – | – | – | – | – | – | – | < 3 | < 3 | < 3 | – | < 3 | < 3 | < 3 | 66.1 | 84 | < 3 | < 3 | – | –
SPSPGTPGGDNPYQRGPDPTVASVAAQYGPFATAQITVPPGNGFNGGFIYYPTDTSHTYGAVAIVPGYTALFADEEAWMGPRLASFGFVVIGVETNSRTDYDTARGTQLLAALDYLTNSSAVRDRVDRNRLSVIGHSMGGGGSLYAATQRPSLKAAIGLAPFKPSGNLASDTVPTMIIGGINDTTVTPSYLDGLYPTLPAATPGAYLQLANADHLYFTRPNDIELRSQIEWLKIFVDNDTRYTPFLCPSVKDTTGIVRSSVKCSTVPGGGSTPSSSRILGTQSGRCVDVPGATHNNGTRVQLYDCNGQANQQWTYTSSKQLTVYGTVCLDAAGSGNGSAVQIYSCNGQANQQWNVNANGTITGVQSGRCLDVWGTGNGQQIQIYDCNGQANQKFSLN [ESM136] | – | – | – | – | – | – | – | – | 5 | 18 | 13 | < 3 | < 3 | < 3 | < 3 | < 3 | 55.6 | 61.4 | – | – | – | –
AGFERGPDPSTSTLDAARGPFAVAEERVYSWRASGFGGGDIYYPTTTSEGTFGVVAVAPGYTAGRSSMAWLASRIASHGFVVINIDTLTRSDQPASRGRQLLAALDHVTSSSGVRDRVDASRQAVVGHSMGGGGALEAASSRPALQAAVPLTPWNLTKRWSSLQVPTFIVGAENDSVASVRTHAEPFYESLPAALPKAYLELNNASHFAPNTTNSTIGRYTVAWLKRYVDDDLRYSQFLCPPPPPSSAIEEFRATC [DP087] | – | < 3 | < 3 | < 3 | – | < 3 | < 3 | < 3 | – | < 3 | < 3 | < 3 | – | < 3 | < 3 | < 3 | 44.2 | 208 | < 3 | < 3 | < 3 | < 3
QYQKGPDPTVAGLERDGTFAIRTTTVSRLSASGFGGGTIYYPTATGSYGVVAVSPGFTAYQSSISWIGSRLASHGFVVITIDTNTTSDQPDSRARQLKAALDKVVSLASSRTNVLYGKVDSSRLAVAGHSMGGGGSLAAARDYPSLKASVPLAPWHTTKSFSTVRVPTLIVGADGDTVASVTSHSIPFYTSIPSSTPKGYLELNNEDHFFPQDSGEYGLVGKYMISWFKRFVDSDTRYSPFLCGAPHQTQIANTLRVSDSRTNCPY [DP038] | – | – | – | – | – | – | – | – | – | 6 | 55 | 59 | – | < 3 | < 3 | < 3 | 56.2 | 54 | 54 | < 3 | – | –
AENPYQRGPDPTLAALAASAGPYPIMETVVGSAEVTNFGGASIYYPAGTADGTFGGVAVTPGFLGPRSTMEWVARRVASHGFVVINIDTLERNDTPPLRARQMLAALDYLTGASAVRDRVDPTRLAVMGHSMGGGGSLQASRQRPQLKAAVPLTPWSNDKDFSADVVPTLIIGAELDDTAPVAEHAEPFFESIAAARKAYLELNDAEHRAPIRTNETIGTYSVAWLKRFVDDDTRYEQFLCPPPAPSAAIEEFRGTCPSS [TEP106] | – | – | – | – | – | – | – | – | < 3 | < 3 | < 3 | < 3 | < 3 | < 3 | < 3 | < 3 | 41.5 | 87.7 | – | – | – | –
ADNPYQRGPDPTAASVTAVNGPFANTSVSVPTGYGFNGGRIYYPTDTSQGTFGAIAISPGYTALFSAELAWMGPWLASHGFVVIGIETNSRNDFDTARGTQLLAALDYLTQQSPVRDRVDPNRLAVAGHSMGGGGALSAATRRPSLKAVVGIAPYSPSSNLANDRVPTMIFAGQADTVVTPSYATGLYNSLPTTTESTYLEVAGADHGFMVGRSNPVLVRTMLPFVKMFLDNDARYSQFLCPLLDNSGVVTYRSTCPLLPSTPTSPTPTTTPTSTPTPTPTVTPTTPPGSASQIVGTQSGRCVDVPNASRTNGTRVHLWDCNRQANQAWTYTANKQLQVYGTMCLDAAGTGNGAAVQIYSCHGQTNQQWNVNSNGTISSVQSGRCLDVWSTANGAQVQLYDCHGQTNQQFRLTALN [ESM130] | – | – | – | – | – | – | – | – | < 3 | 6 | 3 | < 3 | < 3 | < 3 | < 3 | < 3 | 58 | 138 | – | – | – | –
ADNPYQRGPDPTLASVAANRGTFATAQLSVPGDGFGSGVIYYPTDTSQTFGAVAIVPGYSALFSVEEAWMGHWLASFGFVVIGIETISRSDSADARATQLLAALDYLTQRSSVRSRVDASRLSIIGHSAGGAGVLTAVLRRPTLKAAVGLAPGSPVGNYNLSSDRVPTMFISGQRDTTVSQSYLNGIYPTIPASTPSAWVELTGGDHLFPTRANTNMMRVLIPWLKIFVDNDTRYTQFLCPLMDSSGISMYRNKCPYVPTSPSPSPSTSPSPSVSPSPSPSASPSPSPSPSTSPSPQPSGACSATYRTVNSWSGGYQAEVTVTAGSSAINRWSVRWTLSSGQSISQVWNGTLSAGGSSVTVANASYNGSLPASGTTTFGFLANGAPSTPTLTCTSP [ESM034] | < 3 | < 3 | < 3 | < 3 | < 3 | < 3 | < 3 | < 3 | < 3 | < 3 | < 3 | < 3 | < 3 | < 3 | < 3 | < 3 | 59.8 | 392 | – | – | – | –

— the supplement of paper PMC12455559
